Experimental findings from patent US5789237, “Nucleic acid sequences coding for or complementary to nucleic acid sequences coding for interleukin 9 receptor” (Ludwig Institute for Cancer Research, dated 1998) are described below.

The target of this experiment is T1, purified recombinant murine IL9, 125I labelled (murine, UniProt P15247, 125I label).
T1 sequence: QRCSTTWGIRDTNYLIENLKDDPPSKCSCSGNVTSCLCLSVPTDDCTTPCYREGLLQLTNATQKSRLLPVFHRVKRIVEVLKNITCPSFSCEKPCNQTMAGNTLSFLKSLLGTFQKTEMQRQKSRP
Nature of the experiment: Scatchard analysis on transfected COS cells. How it is done: In order to make sure that clone p9RA1 and all subsequent clones did in fact express IL9R. Scatchard analysis was carried out on transfected COS cells, following Goodwin et al., Cell 60: 941–951 (1990). […] This is slightly higher than the dissociation constant measured on TS1 cells previously, i.e., 67 pM.

B1: murine IL-9 receptor encoded by clone p9RC4 (receptor)
chain: VSVPEQGGGGQKAGAFTCLSNSIYRIDCHWSAPELGQESRAWLLFTSNQVTEIKHKCTFWDSMCTLVLPFEEVFLPFDNFTITLHRCIMGQEQVSLVDSQYLPRRHIKLDPPSDLQSNVSSGRCVLTWGINLALEPLITSLSYELAFKRQEEAWEARHKDRIVGVTWLILEAVELNPGSIYEARLRVQMTLESYEDKTEGEYYKSHWSEWSQPVSFPSPQRRQGLLVPRWQWSASILVVVPIFLLLTGFVHLLFKLSPRLKRIFYQNIPSPEAFFHPLYSVYHGDFQSWTGARRAGPQARQNGVSTSSAGSESSIWEAVATLTYSPACPVQFACLKWEATAPGFPGLPGSEHVLPAGCLELEGQPSAYLPQEDWAPLGSARPPPPDSDSGSSDYCMLDCCEECHLSAFPGHTESPELTLAQPVALPVSSRA
With B1, the Kd came to 0.126 nM.

B2: murine IL-9 receptor encoded by clone p9RA1 (receptor)
chain: VSVPEQGGGGQKAGAFTCLSNSIYRIDCHWSAPELGQESRAWLLFTSNQVTEIKHKCTFWDSMCTLVLPFEEVFLPFDNFTITLHRCIMGQEQVSLVDSQYLPRRHIKLDPPSDLQSNVSSGRCVLTWGINLALEPLITSLSYELAFKRQEEAWEQARHKDRIVGVTWLILEAVELNPGSIYEARLRVQMTLESYEDKTEGEYYKSHWSEWSQPVSFPSPQRRQGLLVPRWQWSASILVVVPIFLLLTGFVHLLFKLSPRLKRIFYQNIPSPEAFFHPLYSVYHGDFQSWTGARRAGPQARQNGVSTSSAGSESSIWEAVATLTYSPACPVQFACLKWEATA
With B2, the Kd came out at 0.194 nM.

A word on the Kd: it is the concentration at which binding is half-saturated.
